According to US20260144867A1 (TIGATX, published 2026):

Target: T1, EGFR expressed on A431, A1207 and D562 cell lines (human, UniProt P00533 25-1210)
T1 construct: whole, on cells; also called EGFR-expressing A431 cell line
Assay: competitive flow cytometry on A431 cells; blocked ligand: fluorescently labeled EGF (EGF-AL488)

IC50 (read off the curve): ~3 µg/mL
B1: anti-EGFR IgA3.0min DP3 (antibody, V domains shown)
VH: QVQLVQSGAEVKKPGASVKVSCKASGYTFTSHWMHWVRQAPGQGLEWIGEFNPSNGRTNYNEKFKSKATMTVDTSTNTAYMELSSLRSEDTAVYYCASRDYDYDGRYFDYWGQGTLVTVSS
VL: DIQMTQSPSSLSASVGDRVTITCSASSSVTYMYWYQQKPGKAPKLLIYDTSNLASGVPSRFSGSGSGTDYTFTISSLQPEDIATYYCQQWSSHIFTFGQGTKVEIKR
notes: also called anti-EGFR IgA3.0min DS3
